{"source": "the DeepSol protein solubility set"}
{"experiment": "soluble on expression in E. coli; label from the status in PepcDB or PDB records"}
{"sequence": "MSNDKSAEVVVLPRENDEESKEPVLKNQFDLSTFDIDSPEIDLTHTRADHIPDLTGFPKIEELRMRNNLLVSISPTISSLVTLTSLDLYENQLTEISHLESLVNLVSLDLSYNRIRQINGLDKLTKLETLYLVSNKIEKIENLEALTQLKLLELGDNRIKKIENIGHLVNLDELFIGKNKIRQLEGVETLQKLSVLSLPGNRIVKIENVEQLNNLKELYLSDQGLQDIHGVEPLTNLLLLDVANNEIKTFSGVERLESLNDFWANDNKVESFSEIEQLSKLKGLQTVYLERNPFYFNDTNQYRRKVMMTLTQVTQIDATTCRKPIE", "soluble on expression in E. coli": "not soluble"}
{"sequence": "GMTDGEAVSAAAGPGAEGPPGPVGHWAPGSHILWRYRENGGPHVHIARPVTVVRDDADLLAVWLAPGTECVKPVLADGTPVHLEPLATRYTKPRTVQRDQWFGTGVLKLARPGEAWSVWLFWDPGWRFKNWYVNLERPLTRWEGGVDSEDHFLDISVHPDRTWHWRDEDEFAQALRDGLMDPASAGRVRRAGRSAVAEIRAWGSPFADGWEHWRPDPAWPVPSLPGDWDRTPAHVSS", "soluble on expression in E. coli": "soluble"}
{"sequence": "MGSDKIHHHHHHMTTATPLLSLQKPTPIALAEIEESLSQLWANQQHSGAGALVSRAATFSIVVYEPEEFQQILAALGLYHGHLDGLHGPMTRAAIAQAQTQFGLPSTGRPDSATFKALRQAYQALKHSPSLTNQDLRGAVLSNVIATQNPCRIVSLCPTLEGDRPISAEVSAYCPITSAKQASLICCEAVTLRGSQAEMEAIGTFVSELLLPGLPRYVWWKATPNPEQLLFQQLANSCNCMIFDSSYFSDPEAEFLRFQDLIDQETYIADLNWHRLAAWQELTAAAFDPPERRDGLLEVDQLVIDYEKGNPAQALMYMGWIASRLGWQPVSYRCEGGEYDLRQIEFRTEDDRMVKVELAGIPVGDPGLVLGDLIALRLTSENPDADCCTILCSETTGCMRMEAGGGAQSCRTEQVAPPSNETSESLLAMQMQRWGRDALYEESLAVIAVALRQRTHA", "soluble on expression in E. coli": "not soluble"}
{"sequence": "MSKQELDAALKKAKELASSAPVVVFSKTYCGYCNRVKQLLTQVGASYKVVELDELSDGSQLQSALAHWTGRGTVPNVFIGGKQIGGCDTVVEKHQRNELLPLLQDAAATAKTSAQL", "soluble on expression in E. coli": "soluble"}
{"sequence": "MSLNELRKRVEIERSLHEAEFKALSYQINPHFLFNVLNTIGRLAFLEDAQRTETMVHDFSDMMRYLLRKNSHGLITLRNEINYVNNYMSIQKVRMRDRFDYLCDIPEKYLDVVCPFLILQPLVENFFNYVVEPRDSNSHLLIRATDDGLNVIIEVTDNGDGIAPDTINRILSGDQKLQKGSIGINNIKNRLKLLFGESYGLEIMSPNKPRMGTTIKLRFPMQEAEGHHHHHH", "soluble on expression in E. coli": "soluble"}
{"sequence": "MQLVREKEFVNQYHYDARNLEWEKENGTPETNFEVTFQLIDKDEQQKETVIVSVLQFVIVKEEFVISGVISQMVRILDRLVDKPSEFTQEEVESLAAPLLDMVKRLTYEVTEIALDRPGIHLEFKN", "soluble on expression in E. coli": "not soluble"}
{"sequence": "MLTEKTKKELIRLSKVNNYIIKVETNQNFKHQSKCGDQILFQIIETNNGKFNLKHHASGCIVLLASANALNKLCNNKAKSEILNLVQKVINSNFANLDEIDVSLKIFNVFTNTNRKDCFLLPYKSLKDSLESYKPLRRTIRLEHHHHHH", "soluble on expression in E. coli": "not soluble"}
{"sequence": "ALTEEILNAQPNPICVKDRNLHYIAVNKAFSAIHDLAPDAMLGRSASDLVETELAEHFERSDRHVLETGTPYSEAEHIVRADGSDLWVVTRKYRVGLPDRHFVVTCMNDVT", "soluble on expression in E. coli": "not soluble"}
{"sequence": "MSLSGPRNQILVSITDAPKIHILDPSTEYCVGDYVAYQLNGVAPFMIKYEFNGIPLKSKERSSQFVRLASEPGIISITSLQDSSSQCIVDFTNPKLKSEFDDLSLNIHPIPSVTVSQGNYVTEDIREGDQAEVIFSFEGTPPFSLTYVRTEETDGKHGKRRSQVVETHKVTDIYSHEYKVITSLQGTYEAIEITDAYCFAKNDLFFNNEGHHHHHH", "soluble on expression in E. coli": "soluble"}
{"sequence": "MGSDKIHHHHHHMRIVYRASETFKKVHASTALVKAIRGPIGSGKSVGCVLEMFRVAQQQEPNAQGVRKTRWACVRNTYPELKGTVIKTFQTWIPEQICPIKYDSPITGKMNINHPDGKTRIEAEFLFLSMDKPKDVKKLMSLELTGIWINEAQFLPVSLVTEAVTRTGRYPEKRVEEGFMGATWNGMIMDTNSPDDDHWWYQFEQGIDEETEQPLKPKGWEFFVQPGALIDITGMPLATLSDEIKRNIEQGHYDDYLGHRFVANPIAENVINHKKGHGYWFDNIQGQTLNWIKSRVCNEFATVQQGKPVFGDHFNKELHVSTEKLVPVKGWETFIGLDFGLTPAAIIGQIAPIGQLRIVDEIVATGMGIERFITEQLSPLLRSRYAECAIQIIGDPAGVQRAQTDERTCFQLLEEYGFNARPAESNNTTARLEAVRWWLSRLVGKGQPAMLISPHCKTLIKGYETGYAYRQLNVSGEEKYTETPDKNRYSHPHDANQYLCLGAMPSLFKEQVINIKTHQPLSNITGY", "soluble on expression in E. coli": "not soluble"}
{"sequence": "MKQVAKGLQMEGNFGTAHVYRSSLNAIIAYRGKGDFTFHEVTPEWLKGFEIHLRGRGCSWNTVSTYLRTFRAVYNRAVDCRGAVYVPHLFRSVYTGTRADRKRALCDEDMQKVFAKLPSSPAVTPAMRRTQELFVLMFLLRGLPFVDLAYLRKSDLHDNVITYRRRKTGRPLSVTLTREAMVLLKRYMNRDSSSPYLFSLLESREGTKEAYREYQLALRSFNQQLLLLGQLLGLGDRLSSYTARHTWATTAYYCEIHPGIISEAMGHSSITVTETYLKPFRNKKIDEANQLVTDFVKRIVTGLIA", "soluble on expression in E. coli": "not soluble"}
{"sequence": "MGSDKIHHHHHHMKALAIAATGMNAQQTNLEVIANNIANINTTGYKRARAEFSDLLYQVDRTQGVPNRSNASLVPEGVSIGLGVKTTAVRNVHTQGELTSTGNSFDMALTGRGWFQIEGADGGTLYTRAGAFNTNATGQLVTVDGANVIPAITVPTDAVEVIVNKTGQVFARIDGQTNLQTLGQLQIVNFANEAGLAPLGDNLFQETTASGPANAGVPGDPGFATIQQGYLEASNVDPVKEITELISAQRAYEMNSKVIQAADDMASVVSKNIR", "soluble on expression in E. coli": "not soluble"}
{"sequence": "MGSDKIHHHHHHMNILFVAPYTPSPIRVRPYQFIRHLARRGHTITLVCVADNEAALAELRTICRRVVAVPTRTGDHVLAYIRALPTRLPLQAAHCLTPAMITAVTREIQSGDHDVIHIEHLRAAEIGLAALHQSGGGLPVVLDAVDSISLLFERTFRRSSSLSGRLRALIDLARTRHYEATYPHRFAAVVVTSPEDRWALMTLNQTLSHPGHNPLVVAPNGVDLEYFQPHTGPRHPASLVFTGKMSYHANEAAARYLVEAIMPRVWAVRPEVTVTLAGAEPGAHIRAYAHDPRITVTGAVPDLRPYLTQATIAVAPIRYGVGVQNKVLEAMATATPVITARQATVALSVQPGHDLIVADDAAEFAQAILNLLADPERRDRLGQAGRMYVERHHHWQQSVTCLESVYRAVTTPVYTH", "soluble on expression in E. coli": "not soluble"}
{"sequence": "MPLPFSIISTTSQDVLEDADSDEEAETFYVNWITEKNHSFPQSMVLELEEESLVSSVKLIVHKDYPPSSLTVSLGIPSNHFRNSRGKSYNADYSVRQELSFRDDFHVEYGQKHPKATVFFNSPAKFVRISVHGFSDSDVNHHRQVSILSVIISGAGEILPFDSHLKDEPKQTEMSYIELDKGILLPLKSKPKMRETKTIVGLYDTDSEDEEILFSKEMLNRLRKREAVMKNPQLPTTSAITETIAIDTSCEKSAPVSSSSSSKQQSSVSPPLSDRSKKQILDEILGIDEKGNKGKPRKEVYFGSRMSEFNNMLRLLERKREESIWEEKYAQASAIDESVKDLKSREAGLRELIIEREDALKGKDLIAAQR", "soluble on expression in E. coli": "not soluble"}
{"sequence": "MNILNIKEGQHYIAKIESHSFVDGEGVRCSVYVSGCPFQCKGCYNVKAQNFKYGEPFELEMLEEILDYCAPSYIEGLSILGGEPFCNLFITLQLVEAFRQRFGHTKTIWVWTGFLFEYLKQQDDARKSLLEHIDVLVDGMFIQHLYRPNLPYKGSLNQRVIDVQSSLQKEQVIEYLTKLEHHHHHH", "soluble on expression in E. coli": "not soluble"}
{"sequence": "MGSDKIHHHHHHMRGKMIDDPIDLLRQYSRKLVRELGMLQLNKLAAKEQPSYWHTLIEINKEPNITISKLSQLLLVSLPTLSRIVNSLINDELVTVNEGLDKRERFLRVTDKGKEKVNYIDEYSNTKIKRAFHYLTDEEREQVITAIGKYAQALEQSRLIRDQIRILRLSTSRALRKQIVNMIENIQVNEFHLSITPEINASILKAEEEYCYYSSCNFWYAVDEQGGIIGSIGLKKLNHTEGEVKKFFIAPKYRGLGLAQKLMLTLVRNAMKHGFKKLFLGTVAQLNAARRFYEKNGFVLVNKNSLPKEFELCPLDTHFYYCETDKLDKSLRELI", "soluble on expression in E. coli": "not soluble"}
{"sequence": "MSSCVNTSQTGPKKKISFIIRDEHEYSNRSAVSALQYDAQNGRLFTGGSDTIIRTWSVPHHKDAFSARGGVRSPGKNSPVQYQGSLEQHTDWVNDMILCGHGKILISASNDTTVKVWNIERDNKHGFIDCIRTHKDYVSCLAYAPIVEKAVSASFDHNIFVYDINANFKTVNNLIGCKDSIYSLATTPNLSLVLGAGTEKCIRLFDPRTNEKIMKLRGHTDNVRALVVNDDGTRALSAGSDATIRLWDIGQQRCIATCIAHEEGVWTLQVDSSFTTVYSAGKDKMVVKTPLYDFTKSQLLFKEEAPVKKLLLSEKDNPVSLWVGTWKSDIKRWSIRPSAQLSIGGDEDGPSTSNANHSVSASSSPPVTFKYIRVKDQKGQQSTPELVIPGAPAIKKHAMLSDKRHVLTRDSDGNVALYDVLAARKIKDYGKRIFEEVVDENSRQVYIPSWFVVDSKSGMLQITLDELDALSSWLSSKDAGFDDNDRETKLNYGGMMLRSLFERWPPCKMTNVDAADADDVQKATLNFISLPEHTPLIICEGNGRPLYRLLVGDAGKEFEANELAQIAPMWVIDAIERNQLPKFNKMPFYLLPHPSTNPKQPKKDRLSATEMLQVKKVMEHVYEKILSTNDDITVGSIPLNQIHTKMEMYCNDQRLEPDMDLRTVKHLYWKQSGELLLHYKPVK", "soluble on expression in E. coli": "not soluble"}
{"sequence": "LLHGDFELAVPGGPVAAYYAAPAGREQLPIVLVVQEIFGLHEHIKDVCRRLAHDGYLAVSVNLYQRQGDASRYDNIPGLVAELVSKVPDEQVHADLDASLAWAAAHGGDGARVGVTGFCWGGRTTWMYAARNPAVKAGVAWYGRLSSGHGPLIKQVPLDVAGSLHAPVLGLYGGKDESIPLDDVRAMEARLQQGGAPAQASRIVVYPQAGHAFLADYRPSYRAADAQDGWRRMLDWFALYL", "soluble on expression in E. coli": "not soluble"}
{"sequence": "MKKYTLIATAPMGIEAVVAKEVRDLGYECKVDNGKVIFEGDALAICRANLWLRTADRIKVQVASFKAKTFDELFEKTKAINWRSFIPENGKFPVIGKSVKSTLASVPDCQRIVKKAIVEKLKLQSGKANDWIEETGAEYKVEISLLKDQALITLDSSGTGLHKRGYRVDQGGAPIKETLAAALVQLTNWTPDRPFVDPFCGSGTIAIEAALIGQNIAPGFNRDFVSEDWEWIGKDLWNKARLEVEEKANYDQPLTIFASDIDHRMVQIAKENAEEAGLGDLIQFKQMQVKDFTTNLEFGVIVGNPPYGERLGEKKAVEQMYKEMGQAFEPLDTWSVYMLTSNENFEEAYGRKATKKRKLFNGFIKTDYYQYWSKVRPQRKKTENA", "soluble on expression in E. coli": "not soluble"}
